Test results taken from patent publication CN116063478A (BEIJING SHUNYUANTIAN BIOLOGICAL PRODUCTS CO LTD, dated 2023).

Biological target: 重组人Bromodomain结构域结合蛋白4(BRD4,区域49-170aa)(Biovision，货号:7643-100) (human, UniProt O60885 49-170)
Assay: BLI (Fortebio Octet), binding kinetics; format not stated

Kd: 1.07 nM
B1: BRD4-3F14单抗 (antibody, V domains shown)
VH: VKPGGSLKLSCAASRGWVDPYRMSWVRQTPDKRLEWVAIQITGHDFDYYPDSVKGRFTISRDQDKQTLYLQMSSLKSEDTAMYYCLGPKAVKHLELWGQGTTVTVS
VL: DLVMTQTAPSVPVTPGESVSISCRSTAWWYVWWMLWQLYWFLQRPGQSPQLLIYVYHNLASGVPDRFSGSGSGTAFTLRISRVEAEDVGVYYCWHFPRHKCSFGSGTKLEIK
